# Measured values: publication doi:10.1101/2020.02.09.940833
# What was measured:
# SAR1A (human) = SAR1A (human) (UniProt Q9NR31); assay: liposome flotation
# SAR1B>A-helix (human) = SAR1B>A-helix (human) (UniProt Q9Y6B6); assay: liposome flotation
# Sequence of SAR1A (human) (Q9NR31 whole entry): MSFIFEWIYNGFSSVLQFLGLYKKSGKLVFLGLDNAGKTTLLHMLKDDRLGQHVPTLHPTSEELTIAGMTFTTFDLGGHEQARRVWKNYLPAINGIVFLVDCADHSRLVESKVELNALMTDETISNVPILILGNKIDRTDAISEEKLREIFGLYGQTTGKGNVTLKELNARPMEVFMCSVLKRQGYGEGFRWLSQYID
# Sequence of SEC23A (Q15436 whole entry): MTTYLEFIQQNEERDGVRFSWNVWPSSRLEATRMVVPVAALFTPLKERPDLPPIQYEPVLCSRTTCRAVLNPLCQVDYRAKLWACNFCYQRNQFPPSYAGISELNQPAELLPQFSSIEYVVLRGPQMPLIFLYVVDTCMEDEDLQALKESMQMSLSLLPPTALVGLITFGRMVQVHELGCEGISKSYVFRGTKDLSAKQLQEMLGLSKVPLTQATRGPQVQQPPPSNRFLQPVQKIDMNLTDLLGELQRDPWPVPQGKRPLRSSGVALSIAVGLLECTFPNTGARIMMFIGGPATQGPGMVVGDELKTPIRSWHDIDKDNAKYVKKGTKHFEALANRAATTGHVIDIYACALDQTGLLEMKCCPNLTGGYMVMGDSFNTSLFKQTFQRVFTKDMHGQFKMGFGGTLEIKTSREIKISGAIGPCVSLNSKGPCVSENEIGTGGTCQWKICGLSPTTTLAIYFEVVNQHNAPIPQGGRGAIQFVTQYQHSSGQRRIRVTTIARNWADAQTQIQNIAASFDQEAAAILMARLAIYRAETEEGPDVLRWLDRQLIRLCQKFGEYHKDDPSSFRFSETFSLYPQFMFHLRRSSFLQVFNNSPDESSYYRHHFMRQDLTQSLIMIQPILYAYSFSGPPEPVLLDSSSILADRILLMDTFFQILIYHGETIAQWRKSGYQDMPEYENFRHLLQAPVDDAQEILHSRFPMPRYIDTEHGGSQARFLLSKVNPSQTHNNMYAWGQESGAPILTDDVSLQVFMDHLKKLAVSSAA
Substance,fold recruitment relative to SAR1B (SAR1A (human)),fold reduction of binding (reference as read: SAR1A>B-helix) (SAR1B>A-helix (human))
GTPase activating fragment of SEC31A (from UniProt O94979 1-1220) (domain or fragment),2 fold,
SEC23A (from UniProt Q15436 1-765) (natural protein),,2 fold
